Laboratory results taken from patent WO2013139956A1 (dated 2013).

How the values were obtained:
Test in all cases: ELISA, biotin-peptide on neutravidin plate, antibody 1 ug/ml
[1] = target: T1, peptide … (SEQ ID NO:51), N-terminally biotinylated (human)
T1 sequence (peptide, N-terminally biotinylated): EISQEVRGDVFPSY

[2] = target: T2, peptide … (SEQ ID NO:74), N-terminally biotinylated (human)
T2 sequence (peptide, N-terminally biotinylated): EISQEVAGDVFPSY

[3] = target: T3, peptide … (SEQ ID NO:75), N-terminally biotinylated (human)
T3 sequence (peptide, N-terminally biotinylated): EISQEVRADVFPSY

[4] = target: peptide … (SEQ ID NO:76), N-terminally biotinylated (human)
[5] = target: T4, peptide … (SEQ ID NO:77), N-terminally biotinylated (human)
T4 sequence (peptide, N-terminally biotinylated): EISQEVAADVFPSY

[6] = target: peptide … (SEQ ID NO:78), N-terminally biotinylated (human)
[7] = target: peptide … (SEQ ID NO:79), N-terminally biotinylated (human)
[8] = target: peptide … (SEQ ID NO:80), N-terminally biotinylated (human)
[9] = target: peptide … (SEQ ID NO:81), N-terminally biotinylated (human)
[10] = target: peptide … (SEQ ID NO:82), N-terminally biotinylated (human)
[11] = target: peptide … (SEQ ID NO:83), N-terminally biotinylated (human)
[12] = target: peptide … (SEQ ID NO:84), N-terminally biotinylated (human)
[13] = target: peptide … (SEQ ID NO:85), N-terminally biotinylated (human)
[14] = target: peptide … (SEQ ID NO:86), N-terminally biotinylated (human)

“rabbit polyclonal antibody preparation raised against amino acids 56-190 of murine MFG-E8 (Santa Cruz sc-33546)” gave an absorbance 450 nm minus 540 nm [1] of 0.28 absorbance, an absorbance 450 nm minus 540 nm [2] of 0.24 absorbance and an absorbance 450 nm minus 540 nm [3] of 0.22 absorbance. The absorbance 450 nm minus 540 nm [4] was 0.24 absorbance, the absorbance 450 nm minus 540 nm [5] was 0.24 absorbance and the absorbance 450 nm minus 540 nm [6] was 0.28 absorbance. The absorbance 450 nm minus 540 nm [7] was 0.28 absorbance, the absorbance 450 nm minus 540 nm [8] was 0.31 absorbance and the absorbance 450 nm minus 540 nm [9] was 0.27 absorbance. For the same substance, the absorbance 450 nm minus 540 nm [10] was 0.24 absorbance, the absorbance 450 nm minus 540 nm [11] was 0.24 absorbance and the absorbance 450 nm minus 540 nm [12] was 0.29 absorbance. The absorbance 450 nm minus 540 nm [13] was 0.41 absorbance and the absorbance 450 nm minus 540 nm [14] was 0.34 absorbance.
